From US7223850 (RIGEL PHARMACEUTICALS, dated 2007)

T1: HA-tagged RIP (UniProt Q13546 1-671, limits assumed)
T1 construct: also called HA-RIP; not shown: HA tag
T1 sequence (looked up): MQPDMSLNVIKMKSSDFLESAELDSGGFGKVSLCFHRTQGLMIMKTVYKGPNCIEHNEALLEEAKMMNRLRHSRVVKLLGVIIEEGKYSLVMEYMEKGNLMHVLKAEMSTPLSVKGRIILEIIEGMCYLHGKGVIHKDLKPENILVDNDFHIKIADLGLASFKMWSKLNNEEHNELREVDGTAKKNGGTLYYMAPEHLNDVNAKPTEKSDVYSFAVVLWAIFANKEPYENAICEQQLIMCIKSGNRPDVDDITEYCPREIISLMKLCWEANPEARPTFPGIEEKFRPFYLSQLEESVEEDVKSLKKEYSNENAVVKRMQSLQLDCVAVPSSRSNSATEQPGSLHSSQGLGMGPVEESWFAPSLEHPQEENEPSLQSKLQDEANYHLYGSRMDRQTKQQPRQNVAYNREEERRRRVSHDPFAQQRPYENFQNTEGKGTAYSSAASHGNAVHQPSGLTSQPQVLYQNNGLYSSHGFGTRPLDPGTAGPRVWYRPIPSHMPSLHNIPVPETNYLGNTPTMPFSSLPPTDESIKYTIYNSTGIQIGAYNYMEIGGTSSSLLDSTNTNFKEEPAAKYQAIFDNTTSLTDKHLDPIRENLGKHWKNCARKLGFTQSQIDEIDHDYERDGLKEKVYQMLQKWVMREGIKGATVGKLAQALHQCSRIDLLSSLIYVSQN


Molecular target: T1, HA-tagged RIP
Experiment: co-immunoprecipitation, HA-RIP and Flag-Apop3 mutant co-transfected in Phoenix-A (293 T) cells, anti-Flag immunoblot

Row | binding result | Binder
1 | no binding | Flag-tagged Apop3(1-251) (enzyme, not shown: Flag tag) MSCVKLWPSGAPAPLVSIEELENQELVGKDGFGTVFRAQHRKWGYDVAVKIVNSKAISREVKAMASLDNEFVLRLEGVIEKVNWDQDPKPALVTKFMENGSLSGLLQSQCPRPWPLLCRLLKEVVLGMFYLHDQNPVLLHRDLKPSNVLPDPELHVKLADFGLSTFQGGSQSGTGSGEPGGTLGYLAPELFVNVNRKASTASDVYSFGILMWAVLAGREVELPTEPSLVYEAVCNRQNRPSLAELPQAGPE
2 | no binding | Flag-tagged Apop3(287-518) (other, not shown: Flag tag) FQMVENNMNAAVSTVKDFLSQLKSSNRRFSIPESGQGGTEMDGFRRTIENQHSRNDVMVSEWLNKLNLEEPPSSVPKKCPSLTKRSRAQEEQVPQAWTAGTSSDSMAQPPQTPETSTFRNQMPSPTSTGTPSPGPRGNQGAERQGMNWSCRTPEPNPVTGRPLVNIYNCSGVQVGDNNYLTMQQTTALPTWGLAPSGKGRGLQHPPPVGSQEGPKDPEAWSRPQGWYNHSGK
3 | no binding | Flag-tagged Apop3(1-196) (enzyme, not shown: Flag tag) MSCVKLWPSGAPAPLVSIEELENQELVGKDGFGTVFRAQHRKWGYDVAVKIVNSKAISREVKAMASLDNEFVLRLEGVIEKVNWDQDPKPALVTKFMENGSLSGLLQSQCPRPWPLLCRLLKEVVLGMFYLHDQNPVLLHRDLKPSNVLPDPELHVKLADFGLSTFQGGSQSGTGSGEPGGTLGYLAPELFVNVNR
